# Changes are numbered by the printed parent chain. Names and notes keep the numbering of the source.
# B1: FIXa-Y155F/K247N/N249S/R318Y/R338E/R403E (protein)
# chain 1: YNSGKLEEFVQGNLERECMEEKCSFEEAREVFENTERTTEFWKQYVDGDQCESNPCLNGGSCKDDINSYECWCPFGFEGKNCELDVTCNIKNGRCEQFCKNSADNKVVCSCTEGYRLAENQKSCEPAVPFPCGRVSVSQTSKLTR
# chain 2: VVGGEDAKPGQFPWQVVLNGKVDAFCGGSIVNEKWIVTAAHCVETGVKITVVAGEHNIEETEHTEQNRSVIRIIPHHNYNAAINKYNHDIALLELDEPLVLNSYVTPICIADKEYTNIFLKFGSGYVSGWGRVFHKGYSALVLQYLRVPLVDRATCLESTKFTIYNNMFCAGFHEGGRDSCQGDSGGPHVTEVEGTSFLTGIISWGEECAMKGKYGIYTKVSEYVNWIKEKTKLT
# B2: FIXa-R318Y/R403E/E410N (protein)
# chain 1: B1 chain 1
# chain 2: B1 chain 2 with N67K, S69N, E158R, E230N
# B3: FIXa-D203N/F205T/E410N (protein)
# chain 1: B1 chain 1
# chain 2: B1 chain 2 with D23N, F25T, N67K, S69N, Y138R, E158R, E223R, E230N
# B4: FIXa-K247N/N249S/R318Y/R338E/R403E (protein)
# chain 1: B1 chain 1
# chain 2: B1 chain 2
# B5: FIXa-D104N/K106S/R318Y/R338E/E410N (protein)
# chain 1: B1 chain 1 with D104N, K106S
# chain 2: B1 chain 2 with N67K, S69N, E223R, E230N
# B6: FIXa-Y155F/R318Y/R338E/E410N (protein)
# chain 1: B1 chain 1
# chain 2: B1 chain 2 with N67K, S69N, E223R, E230N
# B7: FIXa-K228N/R338E/R403E (protein)
# chain 1: B1 chain 1
# chain 2: B1 chain 2 with K48N, N67K, S69N, Y138R
# B8: FIXa-A103N/N105S/Y155F/R318Y/R338E/R403E/E410N (protein)
# chain 1: B1 chain 1 with A103N, N105S
# chain 2: B1 chain 2 with N67K, S69N, E230N
# B9: FIXa-D104N/K106S/K228N/K247N/N249S (protein)
# chain 1: B1 chain 1 with D104N, K106S
# chain 2: B1 chain 2 with K48N, Y138R, E158R, E223R
# B10: FIXa-Y155F/R318Y/R338E/R403E (protein)
# chain 1: B1 chain 1
# chain 2: B1 chain 2 with N67K, S69N
# B11: FIXa-Y155F/R318Y/R338E/R403E/E410N (protein)
# chain 1: B1 chain 1
# chain 2: B1 chain 2 with N67K, S69N, E230N
# B12: FIXa-Y155F/R338E/R403E/E410N (protein)
# chain 1: B1 chain 1
# chain 2: B1 chain 2 with N67K, S69N, Y138R, E158R, R178E, E230N
# B13: FIXa-Y155F/K247N/N249S/R318Y/R403E/E410N (protein)
# chain 1: B1 chain 1
# chain 2: B1 chain 2 with E158R, E230N
# B14: FIXa-K247N/N249S/R318Y/R403E/E410N (protein)
# chain 1: B1 chain 1
# chain 2: B1 chain 2 with E158R, E230N
# B15: FIXa-Y155F/K228N/K247N/N249S (protein)
# chain 1: B1 chain 1
# chain 2: B1 chain 2 with K48N, Y138R, E158R, E223R
# B16: FIXa-K228N/R318Y/E410N (protein)
# chain 1: B1 chain 1
# chain 2: B1 chain 2 with K48N, N67K, S69N, E158R, E223R, E230N
# B17: FIXa-D203N/F205T/R338A (protein)
# chain 1: B1 chain 1
# chain 2: B1 chain 2 with D23N, F25T, N67K, S69N, Y138R, E158A, E223R
# B18: FIXa-D104N/K106S/Y155F/R318Y/R338E/R403E/E410N (protein)
# chain 1: B1 chain 1 with D104N, K106S
# chain 2: B1 chain 2 with N67K, S69N, E230N
# B19: FIXa-A103N/N105S/R318Y/R338E/R403E/E410N (protein)
# chain 1: B1 chain 1 with A103N, N105S
# chain 2: B1 chain 2 with N67K, S69N, E230N
# B20: FIXa-D104N/K106S/I251S/R318Y/R338E/E410N (protein)
# chain 1: B1 chain 1 with D104N, K106S
# chain 2: B1 chain 2 with N67K, S69N, I71S, E223R, E230N
# B21: FIXa-D203N/F205T/K228N (protein)
# chain 1: B1 chain 1
# chain 2: B1 chain 2 with D23N, F25T, K48N, N67K, S69N, Y138R, E158R, E223R
# B22: FIXa-D203N/F205T/R338E (protein)
# chain 1: B1 chain 1
# chain 2: B1 chain 2 with D23N, F25T, N67K, S69N, Y138R, E223R
# B23: FIXa-D104N/K106S/Y155F/K228N/K247N/N249S (protein)
# chain 1: B1 chain 1 with D104N, K106S
# chain 2: B1 chain 2 with K48N, Y138R, E158R, E223R
# B24: FIXa-D104N/K106S/R318Y/R338E/R403E/E410N (protein)
# chain 1: B1 chain 1 with D104N, K106S
# chain 2: B1 chain 2 with N67K, S69N, E230N
# B25: FIXa-R318Y/R338E/R403E (protein)
# chain 1: B1 chain 1
# chain 2: B1 chain 2 with N67K, S69N
# B26: FIXa-D203N/F205T/R338E/R403E (protein)
# chain 1: B1 chain 1
# chain 2: B1 chain 2 with D23N, F25T, N67K, S69N, Y138R
# B27: FIXa-R318Y/R338E/R403E/T412A (protein)
# chain 1: B1 chain 1
# chain 2: B1 chain 2 with N67K, S69N, T232A
# B28: FIXa-D203N/F205T/R318Y (protein)
# chain 1: B1 chain 1
# chain 2: B1 chain 2 with D23N, F25T, N67K, S69N, E158R, E223R
# B29: FIXa-K228N/R318Y/R338E/R403E/E410N (protein)
# chain 1: B1 chain 1
# chain 2: B1 chain 2 with K48N, N67K, S69N, E230N
# B30: FIXa-R318Y/R338E/E410S (protein)
# chain 1: B1 chain 1
# chain 2: B1 chain 2 with N67K, S69N, E223R, E230S
# B31: FIXa-D203N/F205T/R318Y/E410N (protein)
# chain 1: B1 chain 1
# chain 2: B1 chain 2 with D23N, F25T, N67K, S69N, E158R, E223R, E230N
# B32: FIXa-R338E/R403E/E410N (protein)
# chain 1: B1 chain 1
# chain 2: B1 chain 2 with N67K, S69N, Y138R, E230N
# Key:
# [1] = target: antithrombin III (plasma purified human AT-III), in complex with unfractionated heparin
# [2] = target: plasma purified human AT-III (antithrombin III), in complex with full-length unfractionated heparin (AT-III/UFH)
# Sequence of Factor X (FX), P00742 (P00742 whole entry, looked up): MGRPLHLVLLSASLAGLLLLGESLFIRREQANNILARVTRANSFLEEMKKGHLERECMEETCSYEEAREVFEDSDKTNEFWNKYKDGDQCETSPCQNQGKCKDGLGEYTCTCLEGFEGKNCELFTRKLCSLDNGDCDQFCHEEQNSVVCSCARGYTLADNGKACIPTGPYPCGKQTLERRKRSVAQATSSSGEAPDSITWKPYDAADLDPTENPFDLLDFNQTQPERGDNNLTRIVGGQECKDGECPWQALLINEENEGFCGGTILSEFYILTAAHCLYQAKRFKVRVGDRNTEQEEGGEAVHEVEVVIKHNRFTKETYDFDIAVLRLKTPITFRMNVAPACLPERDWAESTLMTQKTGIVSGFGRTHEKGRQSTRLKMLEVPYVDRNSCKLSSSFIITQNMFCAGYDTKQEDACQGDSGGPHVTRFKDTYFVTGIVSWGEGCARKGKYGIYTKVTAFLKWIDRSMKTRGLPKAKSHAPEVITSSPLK
# Sequence of Factor X, P00742 (P00742 whole entry, looked up): as above
Protein,"kcat/KM (Factor X, P00742) [M⁻¹ s⁻¹]","KM (Catalytic activity of FIXa variants) (Factor X, P00742) [µM]","kcat/KM (M^-1s^-1), FX activation by FIXa in the Xase complex (Factor X (FX), P00742) [M⁻¹ s⁻¹]",K0.5 [1] [nM],K0.5-mut/K0.5-wt [1],"% of WT (kcat/KM) (Factor X, P00742) [%]",also measured
B1,9.5e+07,–,–,–,–,–,"KM (Factor X (FX), P00742): 0.0673 µM; kcat of FX activation by FIXa in the Xase complex (FVIIIa, PC/PS vesicles, Ca2+) (Factor X (FX), P00742): 5.7 s⁻¹"
B2,–,0.0883,2.5e+07,7070,366,–,–
B3,4.2e+07,0.0455,–,377,19.5,91,"kcat/KM for FX activation (Xase assay with FVIIIa, PC/PS vesicles, Ca2+) (Factor X (FX), P00742): 4.2e+07 M⁻¹ s⁻¹"
B4,2.3e+08,–,–,–,–,–,"KM (Factor X (FX), P00742): 0.0536 µM; kcat of FX activation by FIXa in the Xase complex (FVIIIa, PC/PS vesicles, Ca2+) (Factor X (FX), P00742): 10.5 s⁻¹"
B5,–,0.0189,2.6e+08,6330,327,–,–
B6,–,0.016,3.7e+08,1100,56.8,–,–
B7,–,0.0592,–,1680,86.8,105,"kcat/KM for FX activation (Xase assay with FVIIIa, PC/PS vesicles, Ca2+) (Factor X (FX), P00742): 4.8e+07 M⁻¹ s⁻¹"
B8,–,0.0507,1.3e+08,–,–,–,–
B9,–,–,–,–,–,–,K0.5-mut/K0.5-wt (against Catalyst Biosciences WT FIXa) [2]: 2.1
B10,8.7e+07,–,–,–,–,189,–
B11,–,0.0304,1.9e+08,–,–,–,–
B12,1.8e+08,–,–,–,–,401,–
B13,1e+07,–,–,–,–,–,"KM (Factor X (FX), P00742): 0.125 µM; kcat of FX activation by FIXa in the Xase complex (FVIIIa, PC/PS vesicles, Ca2+) (Factor X (FX), P00742): 1.2 s⁻¹"
B14,2.7e+07,–,–,–,–,–,"KM (Factor X (FX), P00742): 0.111 µM; kcat of FX activation by FIXa in the Xase complex (FVIIIa, PC/PS vesicles, Ca2+) (Factor X (FX), P00742): 2.9 s⁻¹"
B15,–,–,–,–,–,–,K0.5-mut/K0.5-wt (against Catalyst Biosciences WT FIXa) [2]: 1.4
B16,–,0.042,1.2e+08,475,24.6,–,–

Protein,"kcat/KM (Factor X, P00742) [M⁻¹ s⁻¹]","KM (Catalytic activity of FIXa variants) (Factor X, P00742) [µM]","kcat/KM (M^-1s^-1), FX activation by FIXa in the Xase complex (Factor X (FX), P00742) [M⁻¹ s⁻¹]",K0.5 [1] [nM],K0.5-mut/K0.5-wt [1],"% of WT (kcat/KM) (Factor X, P00742) [%]",also measured
B17,6.2e+07,0.0385,–,423,21.9,135,"kcat/KM for FX activation (Xase assay with FVIIIa, PC/PS vesicles, Ca2+) (Factor X (FX), P00742): 6.2e+07 M⁻¹ s⁻¹"
B18,–,0.048,1.8e+08,–,–,–,–
B19,–,0.0447,1.5e+08,–,–,–,–
B20,–,–,–,–,–,–,K0.5-mut/K0.5-wt (against Catalyst Biosciences WT FIXa) [2]: 464
B21,1.4e+07,0.0399,–,822,42.5,30,"kcat/KM for FX activation (Xase assay with FVIIIa, PC/PS vesicles, Ca2+) (Factor X (FX), P00742): 1.4e+07 M⁻¹ s⁻¹"
B22,1e+08,0.0241,–,1170,60.5,228,"kcat/KM for FX activation (Xase assay with FVIIIa, PC/PS vesicles, Ca2+) (Factor X (FX), P00742): 1e+08 M⁻¹ s⁻¹"
B23,–,–,–,–,–,–,K0.5-mut/K0.5-wt (against Catalyst Biosciences WT FIXa) [2]: 1.6
B24,–,0.0385,1.7e+08,–,–,–,–
B25,6.2e+07,0.0537,–,> 10000,> 517,134,"kcat/KM for FX activation (Xase assay with FVIIIa, PC/PS vesicles, Ca2+) (Factor X (FX), P00742): 6.5e+07 M⁻¹ s⁻¹"
B26,1.9e+07,0.0511,–,1520,78.6,41,"kcat/KM for FX activation (Xase assay with FVIIIa, PC/PS vesicles, Ca2+) (Factor X (FX), P00742): 1.9e+07 M⁻¹ s⁻¹"
B27,–,–,–,–,–,–,K0.5-mut/K0.5-wt (against Catalyst Biosciences WT FIXa) [2]: > 517
B28,2e+07,0.0475,–,7230,374,44,"kcat/KM for FX activation (Xase assay with FVIIIa, PC/PS vesicles, Ca2+) (Factor X (FX), P00742): 2e+07 M⁻¹ s⁻¹"
B29,–,–,–,–,–,–,K0.5-mut/K0.5-wt (against Catalyst Biosciences WT FIXa) [2]: > 517
B30,–,–,–,–,–,–,K0.5-mut/K0.5-wt (against Catalyst Biosciences WT FIXa) [2]: 279
B31,–,0.0457,3.9e+07,–,–,–,–
B32,1.9e+08,0.0455,–,2350,122,411,"kcat/KM for FX activation (Xase assay with FVIIIa, PC/PS vesicles, Ca2+) (Factor X (FX), P00742): 7.8e+07 M⁻¹ s⁻¹"
